Measurements published in the supplement of paper PMC10567573.

B1: NCF4 (parent)
chain: FGPDSKSSALACTLPTLPAKVYVG
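Further: lentivirally expressed fusions sorted by FACS into six bins by GFP to DsRed ratio, PSI derived from sequencing read proportions per bin multiplied by bin number.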

Variants of: B1
Experiment: protein stability index of a GFP-peptide fusion (GPS, HEK-293T) (PSI 1-6); higher = more stable
Details: c terminus: a fixed tail appended
With FGPDSKSSALACTLPTVPAKVYVG [L17V] the protein stability index was 2.29.
For FGPDSKSSALACTLPTTPAKVYVG [L17T], the protein stability index was 2.43.
In the case of FGPDSKSSALACTLPTNPAKVYVG [L17N], the protein stability index is reported as 2.27.
FGPDSKSSALACTLPTHPAKVYVG [L17H] showed a protein stability index of 2.09.
In the case of FGPDSKSSALACTLPTWPAKVYVG [L17W], the protein stability index is reported as 1.88.
With FGPDSKSSALACTLPTEPAKVYVG [L17E] the protein stability index was 2.64.
Work on FGPDSKSSALACTLPTCPAKVYVG [L17C] yielded a protein stability index of 2.14.
In the case of FGPDSKSSALACTLPTIPAKVYVG [L17I], the protein stability index is reported as 1.88.
FGPDSKSSALACTLPTAPAKVYVG [L17A] showed a protein stability index of 2.39.
For FGPDSKSSALACTLPTSPAKVYVG [L17S], the protein stability index was 2.16.
FGPDSKSSALACTLPTFPAKVYVG [L17F] gave a protein stability index of 2.
For FGPDSKSSALACTLPTKPAKVYVG [L17K], the protein stability index was 2.54.
Work on FGPDSKSSALACTLPTRPAKVYVG [L17R] yielded a protein stability index of 2.2.
With FGPDSKSSALACTLPTYPAKVYVG [L17Y] the protein stability index was 1.54.
FGPDSKSSALACTLPTGPAKVYVG [L17G] gave a protein stability index of 2.59.
For FGPDSKSSALACTLPTDPAKVYVG [L17D], the protein stability index was 2.76.
Variant FGPDSKSSALACTLPTMPAKVYVG [L17M] has a protein stability index of 2.24.
With FGPDSKSSALACTLPTPPAKVYVG [L17P] the protein stability index was 2.6.
In the case of FGPDSKSSALACTLPTQPAKVYVG [L17Q], the protein stability index is reported as 3.03.
Variant FGPDSKSSALACTLPTLPAKTYVG [V21T] has a protein stability index of 3.05.
In the case of FGPDSKSSALACTLPTLPAKWYVG [V21W], the protein stability index is reported as 2.63.
Variant FGPDSKSSALACTLPTLPAKKYVG [V21K] has a protein stability index of 3.09.
With FGPDSKSSALACTLPTLPAKHYVG [V21H] the protein stability index was 2.44.
Work on FGPDSKSSALACTLPTLPAKNYVG [V21N] yielded a protein stability index of 3.32.
FGPDSKSSALACTLPTLPAKDYVG [V21D] showed a protein stability index of 3.28.
With FGPDSKSSALACTLPTLPAKCYVG [V21C] the protein stability index was 2.58.
Work on FGPDSKSSALACTLPTLPAKRYVG [V21R] yielded a protein stability index of 3.29.
For FGPDSKSSALACTLPTLPAKIYVG [V21I], the protein stability index was 1.91.
Variant FGPDSKSSALACTLPTLPAKSYVG [V21S] has a protein stability index of 2.61.
Variant FGPDSKSSALACTLPTLPAKMYVG [V21M] has a protein stability index of 1.8.
With FGPDSKSSALACTLPTLPAKAYVG [V21A] the protein stability index was 2.71.
FGPDSKSSALACTLPTLPAKFYVG [V21F] gave a protein stability index of 2.
In the case of FGPDSKSSALACTLPTLPAKYYVG [V21Y], the protein stability index is reported as 2.1.
Variant FGPDSKSSALACTLPTLPAKGYVG [V21G] has a protein stability index of 2.56.
With FGPDSKSSALACTLPTLPAKLYVG [V21L] the protein stability index was 1.91.
In the case of FGPDSKSSALACTLPTLPAKEYVG [V21E], the protein stability index is reported as 3.17.
With FGPDSKSSALACTLPTLPAKPYVG [V21P] the protein stability index was 2.73.
FGPDSKSSALACTLPTLPAKQYVG [V21Q] showed a protein stability index of 2.81.
With FGPDSKSSALACTLPTLPAKVYVQ [G24Q] the protein stability index was 2.22.
Work on FGPDSKSSALACTLPTLPAKVYVE [G24E] yielded a protein stability index of 2.55.
In the case of FGPDSKSSALACTLPTLPAKVYVT [G24T], the protein stability index is reported as 1.9.
Work on FGPDSKSSALACTLPTLPAKVYVP [G24P] yielded a protein stability index of 1.68.
With FGPDSKSSALACTLPTLPAKVYVK [G24K] the protein stability index was 2.88.
For FGPDSKSSALACTLPTLPAKVYVR [G24R], the protein stability index was 2.29.
FGPDSKSSALACTLPTLPAKVYVC [G24C] gave a protein stability index of 1.65.
Variant FGPDSKSSALACTLPTLPAKVYVF [G24F] has a protein stability index of 2.92.
FGPDSKSSALACTLPTLPAKVYVV [G24V] gave a protein stability index of 1.84.
Variant FGPDSKSSALACTLPTLPAKVYVN [G24N] has a protein stability index of 1.85.
Work on FGPDSKSSALACTLPTLPAKVYVL [G24L] yielded a protein stability index of 2.56.
For FGPDSKSSALACTLPTLPAKVYVW [G24W], the protein stability index was 2.29.
Variant FGPDSKSSALACTLPTLPAKVYVA [G24A] has a protein stability index of 1.83.
With FGPDSKSSALACTLPTLPAKVYVD [G24D] the protein stability index was 3.36.
Work on FGPDSKSSALACTLPTLPAKVYVM [G24M] yielded a protein stability index of 1.63.
Variant FGPDSKSSALACTLPTLPAKVYVY [G24Y] has a protein stability index of 1.75.
Work on FGPDSKSSALACTLPTLPAKVYVH [G24H] yielded a protein stability index of 2.08.
FGPDSKSSALACTLPTLPAKVYVI [G24I] gave a protein stability index of 1.74.
In the case of FGPDSKSSALACTLPTLPAKVYVS [G24S], the protein stability index is reported as 1.97.
Variant FGPDSKSSALACTLPTLPAKVYKG [V23K] has a protein stability index of 2.86.
In the case of FGPDSKSSALACTLPTLPAKVYYG [V23Y], the protein stability index is reported as 2.39.
With FGPDSKSSALACTLPTLPAKVYWG [V23W] the protein stability index was 2.07.
FGPDSKSSALACTLPTLPAKVYHG [V23H] showed a protein stability index of 3.06.
FGPDSKSSALACTLPTLPAKVYEG [V23E] gave a protein stability index of 2.81.
For FGPDSKSSALACTLPTLPAKVYCG [V23C], the protein stability index was 2.72.
FGPDSKSSALACTLPTLPAKVYFG [V23F] showed a protein stability index of 1.78.
Work on FGPDSKSSALACTLPTLPAKVYLG [V23L] yielded a protein stability index of 2.67.
Work on FGPDSKSSALACTLPTLPAKVYTG [V23T] yielded a protein stability index of 2.96.
FGPDSKSSALACTLPTLPAKVYDG [V23D] gave a protein stability index of 3.21.
FGPDSKSSALACTLPTLPAKVYAG [V23A] gave a protein stability index of 2.29.
FGPDSKSSALACTLPTLPAKVYIG [V23I] showed a protein stability index of 2.29.
Work on FGPDSKSSALACTLPTLPAKVYRG [V23R] yielded a protein stability index of 2.81.
Work on FGPDSKSSALACTLPTLPAKVYPG [V23P] yielded a protein stability index of 2.77.
With FGPDSKSSALACTLPTLPAKVYSG [V23S] the protein stability index was 2.62.
FGPDSKSSALACTLPTLPAKVYMG [V23M] gave a protein stability index of 2.34.
With FGPDSKSSALACTLPTLPAKVYGG [V23G] the protein stability index was 2.66.
In the case of FGPDSKSSALACTLPTLPAKVYNG [V23N], the protein stability index is reported as 3.2.
For FGPDSKSSALACTLPTLPAKVYQG [V23Q], the protein stability index was 2.36.
With FGPDSKSSALACTLPQLPAKVYVG [T16Q] the protein stability index was 2.2.
FGPDSKSSALACTLPNLPAKVYVG [T16N] showed a protein stability index of 2.06.
With FGPDSKSSALACTLPSLPAKVYVG [T16S] the protein stability index was 2.41.
Variant FGPDSKSSALACTLPILPAKVYVG [T16I] has a protein stability index of 1.66.
FGPDSKSSALACTLPWLPAKVYVG [T16W] showed a protein stability index of 3.26.
FGPDSKSSALACTLPELPAKVYVG [T16E] showed a protein stability index of 2.4.
In the case of FGPDSKSSALACTLPDLPAKVYVG [T16D], the protein stability index is reported as 2.45.
In the case of FGPDSKSSALACTLPVLPAKVYVG [T16V], the protein stability index is reported as 2.08.
With FGPDSKSSALACTLPRLPAKVYVG [T16R] the protein stability index was 1.97.
Work on FGPDSKSSALACTLPHLPAKVYVG [T16H] yielded a protein stability index of 2.2.
Work on FGPDSKSSALACTLPLLPAKVYVG [T16L] yielded a protein stability index of 1.73.
FGPDSKSSALACTLPMLPAKVYVG [T16M] gave a protein stability index of 1.76.
Variant FGPDSKSSALACTLPYLPAKVYVG [T16Y] has a protein stability index of 2.45.
FGPDSKSSALACTLPCLPAKVYVG [T16C] showed a protein stability index of 2.02.
Variant FGPDSKSSALACTLPKLPAKVYVG [T16K] has a protein stability index of 2.33.
FGPDSKSSALACTLPGLPAKVYVG [T16G] gave a protein stability index of 1.88.
FGPDSKSSALACTLPPLPAKVYVG [T16P] gave a protein stability index of 2.05.
For FGPDSKSSALACTLPFLPAKVYVG [T16F], the protein stability index was 2.38.
